Positions count from the first letter of the chain named. Numbers in names are those of the source. One block for each binder: values may come before it.
How the values were obtained:
[1] = biological target: T1, CD3 epsilon homodimer protein (UniProt P07766 23-126); experiment: SPR (Biacore T200), CD3 epsilon homodimer on CM4 chip, one-arm antibody as analyte, 25 C;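 note: homodimer attached to the sensor surface via amine coupling, HBS-EP+ used as running buffer during binding runs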
T1 construct: immobilized on Sensor chip CM4 by amine coupling; also called CD3 (CD3 epsilon)
T1 sequence (P07766 23-126): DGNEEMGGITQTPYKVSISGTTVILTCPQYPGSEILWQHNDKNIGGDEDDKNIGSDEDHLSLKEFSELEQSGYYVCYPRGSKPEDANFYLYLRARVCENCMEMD

[2] = biological target: T2, CD3 epsilon homodimer protein (UniProt P07766 23-126); experiment: SPR, CD3 epsilon homodimer on chip, one-arm antibody as analyte;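 note: surface plasmon resonance at 25 °C with CD3 epsilon homodimer amine-coupled to a CM4 sensor chip, antibody injected as analyte, HBS-EP+ as running buffer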
T2 construct: also called CD3 (CD3 epsilon)
T2 sequence (P07766 23-126): as above

ratio of amounts bound (altered form / CE115HA000) [1]: 0.52
B1: CE115HA000 Y100D one-arm antibody (antibody, human IgG1, kappa, L234A L235A, N297A, name in Kabat numbering)
heavy: QVQLVESGGGVVQPGRSLRLSCAASGFTFSNAWMHWVRQAPGKGLEWVAQIKAKSNNYATYYAESVKGRFTISRDDSKNSLYLQMNSLKTEDTAVYYCRYVHYGADYGVDAWGQGTTVTVSSASTKGPSVFPLAPSSKSTSGGTAALGCLVKDYFPEPVTVSWNSGALTSGVHTFPAVLQSSGLYSLSSVVTVPSSSLGTQTYICNVNHKPSNTKVDKKVEPKSCDKTHTCPPCPAPEAAGGPSVFLFPPKPKDTLMISRTPEVTCVVVDVSHEDPEVKFNWYVDGVEVHNAKTKPREEQYASTYRVVSVLTVLHQDWLNGKEYKCKVSNKALPAPIEKTISKAKGQPREPQVYTLPPSRCELTKNQVSLSCAVKGFYPSDIAVEWESNGQPENNYKTTPPVLDSDGSFFLVSKLTVDKSRWQQGNVFSCSVMHEALHNHYTQKSLSLSPDYKDDDDK
chain: EPKSSDKTHTCPPCPAPELLGGPSVFLFPPKPKDTLMISRTPEVTCVVVDVSHEDPEVKFNWYVDGVEVHNAKTKPREEQYNSTYRVVSVLTVLHQDWLNGKEYKCKVSNKALPAPIEKTISKAKGQPREPQVCTLPPSRDELTKNQVSLWCLVKGFYPSDIAVEWESNGQPENNYKTTPPVLDSDGSFFLYSKLTVDKSRWQQGNVFSCSVMHEALHNRYTQKSLSLSP
light: DIVMTQSPLSLPVTPGEPASISCRSSQSLVHSNRNTYLHWYQQKPGQAPRLLIYKVSNRFSGVPDRFSGSGSGTDFTLKISRVEAEDVGVYYCGQGTQVPYTFGQGTKLEIKRTVAAPSVFIFPPSDEQLKSGTASVVCLLNNFYPREAKVQWKVDNALQSGNSQESVTEQDSKDSTYSLSSTLTLSKADYEKHKVYACEVTHQGLSSPVTKSFNRGEC

ratio of amounts bound (altered form / CE115HA000) [1]: 1.23
B4: CE115HA000 Y100aG one-arm antibody (antibody, human IgG1, kappa, L234A L235A, N297A, name in Kabat numbering)
heavy: B1 heavy with D106Y, Y107G
chain: B1 chain
light: B1 light

ratio of amounts bound (altered form / CE115HA000) [1]: 0.56
B5: CE115HA000 Y100aQ one-arm antibody (antibody, human IgG1, kappa, L234A L235A, N297A, name in Kabat numbering)
heavy: B1 heavy with D106Y, Y107Q
chain: B1 chain
light: B1 light

ratio of amounts bound (altered form / CE115HA000) [1]: 0.6
B6: CE115HA000 Y100V one-arm antibody (antibody, human IgG1, kappa, L234A L235A, N297A, name in Kabat numbering)
heavy: B1 heavy with D106V
chain: B1 chain
light: B1 light

ratio of amounts bound (altered form / CE115HA000) [1]: 0.48
B7: CE115HA000 Y100aL one-arm antibody (antibody, human IgG1, kappa, L234A L235A, N297A, name in Kabat numbering)
heavy: B1 heavy with D106Y, Y107L
chain: B1 chain
light: B1 light

ratio of amounts bound (altered form / CE115HA000) [1]: 0.7
B8: CE115HA000 Y100L one-arm antibody (antibody, human IgG1, kappa, L234A L235A, N297A, name in Kabat numbering)
heavy: B1 heavy with D106L
chain: B1 chain
light: B1 light

ratio of amounts bound (altered form / CE115HA000) [1]: 0.62
B13: CE115HA000 Y100aA one-arm antibody (antibody, human IgG1, kappa, L234A L235A, N297A, name in Kabat numbering)
heavy: B1 heavy with D106Y, Y107A
chain: B1 chain
light: B1 light

KD ratio (KD of CE115HA000/KD of altered form) [2]: 5
B20: CE115HA000 A52aP (antibody, human IgG1, kappa, L234A L235A, N297A, name in Kabat numbering)
heavy: B1 heavy with A53P, D106Y
chain: B1 chain
light: B1 light
notes: one-arm antibody

ratio of amounts bound (altered form / CE115HA000) [1]: 0.31
B21: CE115HA000 Y100aD one-arm antibody (antibody, human IgG1, kappa, L234A L235A, N297A, name in Kabat numbering)
heavy: B1 heavy with D106Y, Y107D
chain: B1 chain
light: B1 light

ratio of amounts bound (altered form / CE115HA000) [1]: 0.48
B22: CE115HA000 Y100P one-arm antibody (antibody, human IgG1, kappa, L234A L235A, N297A, name in Kabat numbering)
heavy: B1 heavy with D106P
chain: B1 chain
light: B1 light

More lines, now with the values behind:

B2: CE115HA000 H35A (antibody, human IgG1, kappa, L234A L235A, N297A, name in Kabat numbering)
heavy: B1 heavy with H35A, D106Y
chain: B1 chain
light: B1 light
notes: one-arm antibody
KD ratio (KD of CE115HA000/KD of altered form) [2]: 25

B3: CE115HA000 A32Y (antibody, human IgG1, kappa, L234A L235A, N297A, name in Kabat numbering)
heavy: B1 heavy with A32Y, D106Y
chain: B1 chain
light: B1 light
notes: one-arm antibody
KD ratio (KD of CE115HA000/KD of altered form) [2]: 2.11

B9: CE115HA000 A52aG (antibody, human IgG1, kappa, L234A L235A, N297A, name in Kabat numbering)
heavy: B1 heavy with A53G, D106Y
chain: B1 chain
light: B1 light
notes: one-arm antibody
KD ratio (KD of CE115HA000/KD of altered form) [2]: 0.61

B10: CE115HA000 Y100aK one-arm antibody (antibody, human IgG1, kappa, L234A L235A, N297A, name in Kabat numbering)
heavy: B1 heavy with D106Y, Y107K
chain: B1 chain
light: B1 light
ratio of amounts bound (altered form / CE115HA000) [1]: 0.9

B11: CE115HA000 Y100G one-arm antibody (antibody, human IgG1, kappa, L234A L235A, N297A, name in Kabat numbering)
heavy: B1 heavy with D106G
chain: B1 chain
light: B1 light
ratio of amounts bound (altered form / CE115HA000) [1]: 1.07

B12: CE115HA000 A52aE (antibody, human IgG1, kappa, L234A L235A, N297A, name in Kabat numbering)
heavy: B1 heavy with A53E, D106Y
chain: B1 chain
light: B1 light
notes: one-arm antibody
KD ratio (KD of CE115HA000/KD of altered form) [2]: 0.89

B14: CE115HA000 Y100W one-arm antibody (antibody, human IgG1, kappa, L234A L235A, N297A, name in Kabat numbering)
heavy: B1 heavy with D106W
chain: B1 chain
light: B1 light
ratio of amounts bound (altered form / CE115HA000) [1]: 1.03

B15: CE115HA000 Y100K one-arm antibody (antibody, human IgG1, kappa, L234A L235A, N297A, name in Kabat numbering)
heavy: B1 heavy with D106K
chain: B1 chain
light: B1 light
ratio of amounts bound (altered form / CE115HA000) [1]: 1.07

B16: CE115HA000 A52aD (antibody, human IgG1, kappa, L234A L235A, N297A, name in Kabat numbering)
heavy: B1 heavy with A53D, D106Y
chain: B1 chain
light: B1 light
notes: one-arm antibody
KD ratio (KD of CE115HA000/KD of altered form) [2]: 1.35

B17: CE115HA000 Y100aF one-arm antibody (antibody, human IgG1, kappa, L234A L235A, N297A, name in Kabat numbering)
heavy: B1 heavy with D106Y, Y107F
chain: B1 chain
light: B1 light
ratio of amounts bound (altered form / CE115HA000) [1]: 0.87

B18: CE115HA000 Y100Q one-arm antibody (antibody, human IgG1, kappa, L234A L235A, N297A, name in Kabat numbering)
heavy: B1 heavy with D106Q
chain: B1 chain
light: B1 light
ratio of amounts bound (altered form / CE115HA000) [1]: 0.8

B19: CE115HA000 Y100aS one-arm antibody (antibody, human IgG1, kappa, L234A L235A, N297A, name in Kabat numbering)
heavy: B1 heavy with D106Y, Y107S
chain: B1 chain
light: B1 light
ratio of amounts bound (altered form / CE115HA000) [1]: 0.64

B23: CE115HA000 Y100S one-arm antibody (antibody, human IgG1, kappa, L234A L235A, N297A, name in Kabat numbering)
heavy: B1 heavy with D106S
chain: B1 chain
light: B1 light
ratio of amounts bound (altered form / CE115HA000) [1]: 0.81

Reference: patent US20210388087A1 (Chugai, published 2021)
